Biological target: HA-2B4 (A. trivirgatus 2B4 ectodomain fused to human 2B4 from residue 219 to the stop codon), on COS-7 cells (Aotus trivirgatus | human) (UniProt Q9BZW8)
Assay: flow cytometry on cells; cells incubated with the Fc fusion protein (8 μg/mL or a range of concentrations), then anti-human IgG (Fc specific) mAb and anti-mouse IgG-PE; 20% rabbit serum and 1% fetal bovine serum in PBS

Substance: A43-Fc fusion protein
- percent of 2B4-transfected COS-7 cells binding A43-Fc (highest dose): 80.9%

Reference: paper PMC6448830
